In article PMC12822413, “TSHR‐Targeting Nucleic Acid Aptamer Treats Graves' Ophthalmopathy via Novel Allosteric Inhibition”:

Target: recombinant TSHR-His (UniProt P16473 21-414)
Assay: SPR; 5 mM Mg2+; kon 7.686e4 M-1s-1, koff 9.023e-4 s-1; 25 C; Flow: DPBS, 5 mM MgCl2, 4.5 g/L glucose, 0.1 mg/mL yeast tRNA, 1 mg/mL BSA, 4 C 30 min; SPR: DPBS, 5 mM Mg2+, pH 7.4, 25 C
Conditions: protein: commercial; tags: His; label: FAM (flow); biotin (pull-down); stem-loops (NUPACK predicted)

Sequence of recombinant TSHR-His (P16473 21-414): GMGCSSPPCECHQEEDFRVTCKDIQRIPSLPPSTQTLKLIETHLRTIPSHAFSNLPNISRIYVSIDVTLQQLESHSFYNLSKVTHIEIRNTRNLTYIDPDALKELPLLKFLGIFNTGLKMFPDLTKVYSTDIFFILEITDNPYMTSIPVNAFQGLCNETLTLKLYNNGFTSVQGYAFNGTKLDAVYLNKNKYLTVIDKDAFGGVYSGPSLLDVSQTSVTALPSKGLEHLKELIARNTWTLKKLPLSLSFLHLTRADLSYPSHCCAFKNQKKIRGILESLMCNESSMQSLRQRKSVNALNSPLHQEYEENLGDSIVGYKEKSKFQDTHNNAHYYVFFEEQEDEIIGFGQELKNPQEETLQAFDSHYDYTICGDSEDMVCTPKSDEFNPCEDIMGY

B1: YC3 (structured_DNA)
DNA: ACCGACCGTGCTGGACTCAGATGAACAATCGATGGAAGATTGGGTCGCACCGGCCTCTTTCACTATGAGCGAGCCTGGCG
Kd: 11.7 nM
